T1: GST-MORT-1 fusion protein (Homo sapiens, UniProt Q13158)
T1 construct: made in house
T1 sequence (Q13158 1-208): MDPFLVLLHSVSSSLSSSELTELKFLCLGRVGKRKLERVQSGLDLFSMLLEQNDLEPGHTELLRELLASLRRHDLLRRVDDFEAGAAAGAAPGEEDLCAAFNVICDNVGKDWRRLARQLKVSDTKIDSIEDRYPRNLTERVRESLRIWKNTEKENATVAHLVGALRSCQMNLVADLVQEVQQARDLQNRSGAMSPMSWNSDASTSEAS

B1: MACHβ1: MACH isoform, cDNA SEQ ID NO: 4, amino acid SEQ ID NO: 5; lacks the CED3/ICE homology region (protein)
chain: MDFSRNLYDIGEQLDSEDLASLKFLSLDYIPQRKQEPIKDALMLFQRLQEKRMLEESNLSFLKELLFRINRLDLLITYLNTRKEEMERELQTPGRAQISAYRVMLYQISEEVSRSELRSFKFLLQEEISKCKLDDDMNLLDIFIEMEKRVILGEGKLDILKRVCAQINKSLLKIINDYEEFSKERSSSLEGSPDEFSNDFGQSLPNEKQTSGILSDHQQSQFCKSTGESAQTSQH
B2: MACHα1 (C360S): MACHα1 mutant in which the catalytic cysteine Cys360 is replaced by Ser (protein)
chain: MDFSRNLYDIGEQLDSEDLASLKFLSLDYIPQRKQEPIKDALMLFQRLQEKRMLEESNLSFLKELLFRINRLDLLITYLNTRKEEMERELQTPGRAQISAYRVMLYQISEEVSRSELRSFKFLLQEEISKCKLDDDMNLLDIFIEMEKRVILGEGKLDILKRVCAQINKSLLKIINDYEEFSKERSSSLEGSPDEFSNGEELCGVMTISDSPREQDSESQTLDKVYQMKSKPRGYCLIINNHNFAKAREKVPKLHSIRDRNGTHLDAGALTTTFEELHFEIKPHDDCTVEQIYEILKIYQLMDHSNMDCFICCILSHGDKGIIYGTDGQEAPIYELTSQFTGLKCPSLAGKPKVFFIQASQGDNYQKGIPVETDSEEQPYLEMDLSSPQTRYIPDEADFLLGMATVNNCVSYRNPAEGTWYIQSLCQSLRERCPRGDDILTILTEVNYEVSNKDDKKNMGKQMPQPTFTLRKKLVFPSD

Legend:
[1] = biological target: T1, GST-MORT-1 fusion protein; assay: In vitro binding to GST-MORT-1 on glutathione-agarose beads
From the text: It has been shown also to contribute to, though not to suffice in, the self association of MORT-1 (see Example 1). […] To further assess the involvement of the MORT modules in these interactions, deletion mutants of MACHβ1, fused with the FLAG octapeptide (FLAG-MACHβ1), were expressed in HeLa cells and assessed for their binding in vitro to bacterial-produced […] fusion protein (GST-MORT-1). […] FIGS. 9A and 9B show the results (autoradiograms) of the in vitro interaction of MACHβ1 and its deletion mutants with MORT-1. Briefly, 35 [S] metabolically labeled MACHβ1, MACHβ1 fused at its N-terminus to the FLAG octapeptide (FLAG-MACHβ1), C-terminus truncation mutants of FLAG-MACHβ1, and, as a control, luciferase, were produced in transfected HeLa cells. Expression was done using a tetracycline-controlled expression vector, in a HeLa cell clone (HtTA-1) that expresses a tetracycline-controlled transactivator.
The antibodies used are as follows: Rabbit anti-MACHβ1 and anti-MORT1 antisera were raised against GST-MACHβ1 and GST-MORT1 fusion proteins. Mouse monoclonal antibodies against the FLAG octapeptide (M2) and against FAS/APO1 (CH11, Yonehara et al, 1989) were purchased from Eastman Kodak and Oncor (Gaithersburg, Md.) respectively. […]

[2] = tested on: Fas/APO1-induced death of HeLa cells; assay: Death of HeLa cells expressing Fas/APO1 induced by anti-Fas/APO1 antibody and cycloheximide; format: cell-based, human; conditions: HeLa cells transiently expressing Fas/APO1; CH11 0.5 μg/ml, cycloheximide 10 μg/ml
Procedure: In brief, 293-EBNA cells, MCF7 human breast carcinoma cells and HeLa HtTA-1 cells were grown in Dulbecco's modified Eagle's minimal essential medium supplemented with 10% fetal calf serum, nonessential amino acids, 100 U/ml penicillin and 100 μg/ml streptomycin. Cell tissue culture dishes (5×10^5 293-EBNA cells, 3×10^5 s MCF7 cells or 3×10^5 HeLa cells in 6-cm dishes) were transiently transfected, using the calcium phosphate precipitation method, with the cDNAs of the indicated proteins together with the β-galactosidase expression vector. In the experiments presented in FIGS. 14A-D and 15, each dish was transfected with 3.5 μg of the indicated MACH construct and 1.5 μg of pSV-β-gal. In the experiments presented in FIGS. 16A-D and 17-19, each dish was transfected with 2.5 μg of the indicated MACH or MORT1 construct (or, as control, empty vector) and 1.5 μg of pSV-β-gal. The cells were rinsed 6 to 10 h after transfection. The 293-EBNA and MCF7 cells were incubated for a further 18 h without additional treatment. The HeLa cells were incubated for 26 h after transfection and-then for 5 h in the presence of either anti-Fas.APO1 antibody (CH11, 0.5 μg/ml) or TNF (100 ng/ml), together with cycloheximide (10 μg/ml). The extent of cell death at the end of the incubation periods was assessed by determination of β-galactosidase expression, as described by Kumar et al, 1994.
The HeLa cells were made responsive to Fas/APO1 by transient expression of this receptor. […] These protective effects indicate that MACHα is a necessary component of both the Fas/APO1- and the p55-R-induced signaling cascades for cell death.
In particular, FIGS. 16A-D show morphology of 293-EBNA cells in which cell death was induced by transient expression of a chimera comprised of the extracellular domain of the p55-R (amino acids 1-168) fused to the transmembrane and intracellular domains of Fas/APO1 (amino acids 153-319) (p55-Fas chimera) (FIGS. 16A and 16B), or by expression of the p55-R (FIGS. 16C and 16D), and of cells that were protected from these cytotoxic effects by their simultaneous transfection with MACHα1 (C360S) (FIGS. 16B and 16D). Photographs were taken 26 h after transfection. FIG. 17 illustrates the quantification of death induced in 293-EBNA cells by their transfection with p55-Fas chimera or with p55-R, together with an empty vector, a MORT1 deletion mutant lacking the MACH-binding region (MORT1 (92-208)), or MACHα molecules containing a nonfunctional CED3/ICE region. […] Data are from at least two independent experiments and are expressed as in FIGS. 14A-F and 15.

Molecule	in vitro binding to GST-MORT-1 fusion protein [1]	protection against death induced by anti-Fas/APO1 antibody and cycloheximide [2]
B1	able to bind	
B2		prevention
